In publication PMC12394548:
One block for each binder: values may come before it.

Target: valosin-containing protein (VCP)/p97 (UniProt P55072)
Sequence (P55072 whole entry): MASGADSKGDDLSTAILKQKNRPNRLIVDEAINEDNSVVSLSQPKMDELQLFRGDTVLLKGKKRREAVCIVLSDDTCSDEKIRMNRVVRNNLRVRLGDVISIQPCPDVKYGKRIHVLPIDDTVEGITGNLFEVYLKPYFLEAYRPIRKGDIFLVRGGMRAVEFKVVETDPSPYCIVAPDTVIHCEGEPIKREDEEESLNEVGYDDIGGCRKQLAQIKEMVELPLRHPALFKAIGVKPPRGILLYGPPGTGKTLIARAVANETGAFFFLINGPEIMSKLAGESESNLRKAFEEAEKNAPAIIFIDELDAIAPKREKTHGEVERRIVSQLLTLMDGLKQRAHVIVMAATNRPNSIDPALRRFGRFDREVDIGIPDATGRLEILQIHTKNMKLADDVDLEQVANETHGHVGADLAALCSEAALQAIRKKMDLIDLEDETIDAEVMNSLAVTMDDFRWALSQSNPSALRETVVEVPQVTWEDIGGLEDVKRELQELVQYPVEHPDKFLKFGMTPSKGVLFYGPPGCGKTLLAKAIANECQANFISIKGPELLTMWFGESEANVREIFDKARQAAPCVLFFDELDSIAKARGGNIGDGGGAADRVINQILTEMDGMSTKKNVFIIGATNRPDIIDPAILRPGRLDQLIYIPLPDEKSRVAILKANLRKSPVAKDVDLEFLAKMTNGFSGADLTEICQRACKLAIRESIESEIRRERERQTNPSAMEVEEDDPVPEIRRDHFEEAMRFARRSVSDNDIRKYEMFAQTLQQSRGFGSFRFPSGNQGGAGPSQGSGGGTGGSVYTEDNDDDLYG

- initial velocity of Ub-Rho hydrolysis by VCPIP1^(ΔVCPID ΔUBX) (62.5 nM enzyme) in the presence of VCP (v0 = 656.0 RFU/min without VCP); no effect of VCP: 562 RFU/min
B1: VCPIP1^(ΔVCPID ΔUBX) (aa Δ589-666, Δ773-852) (enzyme)
chain: MSQPPPPPPPLPPPPPPPEAPQTPSSLASAAASGGLLKRRDRRILSGSCPDPKCQARLFFPASGSVSIECTECGQRHEQQQLLGVEEVTDPDVVLHNLLRNALLGVTGAPKKNTELVKVMGLSNYHCKLLSPILARYGMDKQTGRAKLLRDMNQGELFDCALLGDRAFLIEPEHVNTVGYGKDRSGSLLYLHDTLEDIKRANKSQECLIPVHVDGDGHCLVHAVSRALVGRELFWHALRENLKQHFQQHLARYQALFHDFIDAAEWEDIINECDPLFVPPEGVPLGLRNIHIFGLANVLHRPIILLDSLSGMRSSGDYSATFLPGLIPAEKCTGKDGHLNKPICIAWSSSGRNHYIPLVGIKGAALPKLPMNLLPKAWGVPQDLIKKYIKLEEDGGCVIGGDRSLQDKYLLRLVAAMEEVFMDKHGIHPSLVADVHQYFYRRTGVIGVQPEEVTAAAKKAVMDNRLHKCLLCGALSELHVPPEWLAPGGKLYNLAKSTHGQLRTDKNYSFPLNNLVCSYDSVKDVLVPDYGMSNLTACNWCHGTSVRKVRGDGSIVYLDGDRTNSRSTGGKCGCGFKHFWDGKEYDNLNIDGAHAQRVGDVQGQESESQLPTKIILTGQKTKTLHKEELNMSKTERTIQQNITEQASVMQKRKTEKLKQEQKGQPRTVSPSTIRDGPSSAPATPTKAPYSPTTSSKAEGGQSAAAHSAHTVKQEDIAVTGKLSSKELQEQAEKEMYSLCLLATLMGEDVWSYAKGLPHMFQQGGVFYSIMKKTMGMADGKHCTFPHLPGKTFVYNASEDRLELCVDAAGHFPIGPDVEDLVKEAVSQVRAEATTRSRESSPSHGLLKLGSGGVVKKKSEQLHNVTAFQGKGHSLGTASGNPHLDPRARETSVVRKHNTGTDFSNSSTKTEPSVFTASSSNSELIRIAPGVVTMRDGRQLDPDLVEAQRKKLQEMVSSIQASMDRHLRDQSTEQSPSDLPQRKTEVVSSSAKSGSLQTGLPESFPLTGGTENLNTETTDGCVADALGAAFATRSKAQRGNSVEELEEMDSQDAEMTNTTEPMDHS
modifications: BODIPY, non-site-selective labelling, DOL 0.44, in the TR-FRET binding assay

- initial velocity of Ub-Rho hydrolysis by VCPIP1^ΔUBX (62.5 nM enzyme) in the presence of VCP (v0 = 754.0 RFU/min without VCP); no effect of VCP: 733 RFU/min
B2: VCPIP1^ΔUBX (aa Δ773-852) (enzyme)
chain: MSQPPPPPPPLPPPPPPPEAPQTPSSLASAAASGGLLKRRDRRILSGSCPDPKCQARLFFPASGSVSIECTECGQRHEQQQLLGVEEVTDPDVVLHNLLRNALLGVTGAPKKNTELVKVMGLSNYHCKLLSPILARYGMDKQTGRAKLLRDMNQGELFDCALLGDRAFLIEPEHVNTVGYGKDRSGSLLYLHDTLEDIKRANKSQECLIPVHVDGDGHCLVHAVSRALVGRELFWHALRENLKQHFQQHLARYQALFHDFIDAAEWEDIINECDPLFVPPEGVPLGLRNIHIFGLANVLHRPIILLDSLSGMRSSGDYSATFLPGLIPAEKCTGKDGHLNKPICIAWSSSGRNHYIPLVGIKGAALPKLPMNLLPKAWGVPQDLIKKYIKLEEDGGCVIGGDRSLQDKYLLRLVAAMEEVFMDKHGIHPSLVADVHQYFYRRTGVIGVQPEEVTAAAKKAVMDNRLHKCLLCGALSELHVPPEWLAPGGKLYNLAKSTHGQLRTDKNYSFPLNNLVCSYDSVKDVLVPDYGMSNLTACNWCHGTSVRKVRGDGSIVYLDGDRTNSRSTGGKCGCGFKHFWDGKEYDNLPEAFPITLEWGGRVVRETVYWFQYESDSSLNSNVYDVAMKLVTKHFPGEFGSEILVQKVVHTILHQTAKKNPDDYTPVNIDGAHAQRVGDVQGQESESQLPTKIILTGQKTKTLHKEELNMSKTERTIQQNITEQASVMQKRKTEKLKQEQKGQPRTVSPSTIRDGPSSAPATPTKAPYSPTTSSKAEGGQSAAAHSAHTVKQEDIAVTGKLSSKELQEQAEKEMYSLCLLATLMGEDVWSYAKGLPHMFQQGGVFYSIMKKTMGMADGKHCTFPHLPGKTFVYNASEDRLELCVDAAGHFPIGPDVEDLVKEAVSQVRAEATTRSRESSPSHGLLKLGSGGVVKKKSEQLHNVTAFQGKGHSLGTASGNPHLDPRARETSVVRKHNTGTDFSNSSTKTEPSVFTASSSNSELIRIAPGVVTMRDGRQLDPDLVEAQRKKLQEMVSSIQASMDRHLRDQSTEQSPSDLPQRKTEVVSSSAKSGSLQTGLPESFPLTGGTENLNTETTDGCVADALGAAFATRSKAQRGNSVEELEEMDSQDAEMTNTTEPMDHS
modifications: BODIPY, non-site-selective labelling, DOL 0.54, in the TR-FRET binding assay
